B1: S2: Homemade recombinant pig-baboon chimeric urate oxidase (SEQ ID NO: 1), not PEG modified (protein)
chain: TYKKNDEVEFVRTGYGKDMIKVLHIQRDGKYHSIKEVATTVQLTLSSKKDYLHGDNSDVIPTDTIKNTVNVLAKFKGIKSIETFAVTICEHFLSSFKHVIRAQVYVEEVPWKRFEKNGVKHVHAFIYTPTGTHFCEVEQIRNGPPVIHSGIKDLKVLKTTQSGFEGFIKDQFTTLPEVKDRCFATQVYCKWRYHQGRDVDFEATWDTVRSIVLQKFAGPYDKGEYSPSVQKTLYDIQVLTLGQVPEIEDMEISLPNIHYLNIDMSKMGLINKEEVLLPLDNPYGKITGTVKRKLSSRL
B2: urate oxidase from Micrococcus: Homemade recombinant urate oxidase from wild-type Micrococcus (SEQ ID NO: 9), not PEG modified (protein)
chain: MTNIILGKNQYGKAEVRLVKVTRNTCRHEIQDLNVTSQLRGDFEAAHTAGDNAHVVATDTQKNTVYAFARDGFATTEEFLLRLGKHFTEGFDWVTGGRWAAQQFFWDRINDHDHAFSRNKSEVRTAVLEISGSEQAIVAGIEGLTVLKSTGSEFHGFPRDKYTTLPETEDRILATDVSARWRYNTVEVDFDAVYADVRGLLLKAFAETHSLALQQTMYEMGRAVIETHPEIDEIKMSLPNKHHFLVDLSPFGQDNPNEVFYAADRPYGLIEATIQREGCRADHPIWSN
B3: S1: Commercially available unmodified urate oxidase from Aspergillus flavus (SEQ ID NO: 8) (protein)
chain: SAVKAARYGKDNVRVYKVHKDEKTGVQTVYEMTVCVLLEGEIETSYTKADNSVIVATDSIKNTIYITAKQNPVTPPELFGSILGTHFIEKYNHIHAAHVNIVCHRWTRMDIDGKPHPHSFIRDSEEKRNVQVDVVEGKGIDIKSSLSGLTVLKSTNSQFWGFLRDEYTTLKETWDRILSTDVDATWQWKNFSGLQEVRSHVPKFDATWATAREVTLKTFAEDNSASVQATMYKMAEQILARQQLIETVEYSLPNKHYFEIDLSWHKGLQNTGKNAEVFAPQSDPNGLIKCTVGRSSLKSKL

Legend:
[1] = Stability of S1 and S2 urate oxidase with/without xanthine at 37° C.: SEC detection of high and low molecular proteins; assay type: physicochemical; details: for High molecular weight % / Low molecular weight % / Main peak %: storage 37° C. ± 2° C.
Method: SEC, 7.8×300 mm chromatographic column or equivalent column was selected. 0.05 mol/L Na2HPO4—NaH2PO4, 0.3 mol/L NaCl, pH 7.0 was used as the mobile phase. The flow rate of HPLC was set to be 0.5 ml/min, and the detection wavelength to 280 nm. Isocratic elution was performed for 35 min, and the injection volume was 10 μl.
(§1) In this example of the present disclosure, xanthine was added to the S1 and S2 samples at a molar ratio of 26 times (xanthine:urate oxidase). The samples were packaged and placed at 37° C. for stability evaluation at days 0, 1.5, 6, and 16. The evaluation indicators include the content of high and low molecular proteins and enzyme specific activity.

[2] = Stability effect of xanthine on urate oxidase from Micrococcus at 2° C. to 8° C.: SEC; assay type: physicochemical; details: for High molecular weight % / Low molecular weight % / Main peak area / Main peak ratio % / Total peak area: SEC
Method: SEC, 7.8×300 mm chromatographic column or equivalent column was selected. 0.05 mol/L Na2HPO4—NaH2PO4, 0.3 mol/L NaCl, pH 7.0 was used as the mobile phase. The flow rate of HPLC was set to be 0.5 ml/min, and the detection wavelength to 280 nm. Isocratic elution was performed for 35 min, and the injection volume was 10 μl. From the SEC results of the stability test at 2° C. to 8° C. in Table 3, it can be seen that the total peak area of the group with small molecules added on day 15 is larger and the main peak ratio thereof is higher.

[3] = Text: As the amount of xanthine added increases, the pH of the solution needs to be further increased to dissolve xanthine. However, high pH conditions will cause protein denaturation. […] The stability change trend of PEGylated urate oxidase tetramer was detected by the detection method of high and low molecular proteins of PEGylated urate oxidase.
The situation where the molar ratio of xanthine to PEGylated urate oxidase was higher than 26:1 was studied.

[4] = Effect of xanthine on the activity of PEGylated urate oxidase (UV 293 nm); assay type: biochemical; details: xanthine 0.075 to 1.2 μg/ml
Method: The method used for determining the activity of urate oxidase and PEGylated urate oxidase was as follows. […] Therefore, the UV spectrophotometer detection wavelength was 293 nm. The buffer solution was used as a blank control, and the absorption zero point was calibrated. In the quartz cuvette, 2.95 ml of substrate reaction solution was added followed by 50 μl of the test solution, mixed immediately, and the light absorption value at 293 nm was measured. According to C=A/εL (A being the absorbance value of a specific concentration of uric acid at 293 nm, εbeing the molar extinction coefficient of uric acid, L being the light path of the cuvette, and C being the molar concentration of uric acid), the degradation concentration of uric acid and then the enzyme activity were calculated. Definition of the activity of urate oxidase and PEGylated urate oxidase: at the optimal reaction temperature of 37° C. and the optimal reaction pH of 9.5, the amount of enzyme required to convert […] uric acid into allantoin per minute being defined as one activity unit (U). […] The PEGylated urate oxidase solution was mixed with different amounts of xanthine at a molar ratio of 0.05 mg/ml PEGylated urate oxidase to xanthine of 1:0, 1:3, 1:11, and 1:44, and then the activity of urate oxidase and polyethylene glycol-modified urate oxidase was determined according to the above-mentioned detection method.

[5] = Stability of S1 and S2 urate oxidase with/without xanthine at 37° C.: enzyme specific activity (uric acid absorbance at 293 nm); assay type: biochemical; details: storage 37° C. ± 2° C.
Method: (§2) The method used for determining the activity of urate oxidase and PEGylated urate oxidase was as follows. […] Therefore, the UV spectrophotometer detection wavelength was 293 nm. The buffer solution was used as a blank control, and the absorption zero point was calibrated. In the quartz cuvette, 2.95 ml of substrate reaction solution was added followed by 50 μl of the test solution, mixed immediately, and the light absorption value at 293 nm was measured. According to C=A/εL (A being the absorbance value of a specific concentration of uric acid at 293 nm, εbeing the molar extinction coefficient of uric acid, L being the light path of the cuvette, and C being the molar concentration of uric acid), the degradation concentration of uric acid and then the enzyme activity were calculated.
(§3) Definition of the activity of urate oxidase and PEGylated urate oxidase: at the optimal reaction temperature of 37° C. and the optimal reaction pH of 9.5, the amount of enzyme required to convert […] uric acid into allantoin per minute being defined as one activity unit (U).
as §1

[6] = Stability effect of xanthine on urate oxidase from Micrococcus at 2° C. to 8° C.: enzyme activity; assay type: biochemical; details: storage 2° C. to 8° C., 15 d
Method: as §2, §3

[7] = immediate detection after process preparation

| Molecule | Enzyme specific activity U/mg ([5]; 0 d) [U/mg] | Enzyme specific activity U/mg ([5]; 1.5 d) [U/mg] | Enzyme specific activity U/mg ([5]; 6 d) [U/mg] | Enzyme specific activity U/mg ([5]; 16 d) [U/mg] | High molecular weight % ([1]; 0 d) [%] | Low molecular weight % ([1]; 0 d) [%] | Main peak % ([1]; 0 d) [%] | High molecular weight % ([1]; 1.5 d) [%] | Low molecular weight % ([1]; 1.5 d) [%] | Main peak % ([1]; 1.5 d) [%] | High molecular weight % ([1]; 6 d) [%] | Low molecular weight % ([1]; 6 d) [%] | Main peak % ([1]; 6 d) [%] | High molecular weight % ([1]; 16 d) [%] | Low molecular weight % ([1]; 16 d) [%] | Main peak % ([1]; 16 d) [%] | other results |
| --- | --- | --- | --- | --- | --- | --- | --- | --- | --- | --- | --- | --- | --- | --- | --- | --- | --- |
| O=c1[nH]c(=O)c2[nH]cnc2[nH]1 [xanthine] | – | – | – | – | – | – | – | – | – | – | – | – | – | – | – | – | effect of xanthine on the product stability of commercially available products and PHC ([1]; 26 times molar ratio, 37° C.): significantly improve the product stability; effect of xanthine on the stability of the enzyme derived from Micrococcus ([2]; 26 times xanthine, 2° C. to 8° C., day 15, text): improve the stability of the enzyme derived from Micrococcus to a certain extent; solubility of xanthine [3]: good solubility; effect of the addition of xanthine on the activity of PEGylated urate oxidase [4]: no effect |
| B1 | 11.3 | 5.2 | 3.2 | 1.2 | 0.7 | 0.3 | 99 | 54.5 | 0.2 | 45.3 | 75.1 | 0.5 | 24.4 | 85.1 | 5 | 9.9 | – |
| B2 | – | – | – | – | – | – | – | – | – | – | – | – | – | – | – | – | High molecular weight % [2, 7]: 40.01%; Low molecular weight % [2, 7]: 2.34%; Main peak area [2, 7]: 3,986; Main peak ratio % [2, 7]: 57.65%; Total peak area [2, 7]: 6914.90; High molecular weight % ([2]; storage 2° C. to 8° C., 15 d): 74.58%; Low molecular weight % ([2]; storage 2° C. to 8° C., 15 d): 9.11%; Main peak area ([2]; storage 2° C. to 8° C., 15 d): 814; Main peak ratio % ([2]; storage 2° C. to 8° C., 15 d): 16.31%; Total peak area ([2]; storage 2° C. to 8° C., 15 d): 4993.05; Enzyme activity U/mg [6]: 3.58 U/mg |
| B3 | 15.3 | 12.6 | 8.5 | 3 | 0.3 | 1 | 98.8 | 0.2 | 5.6 | 94.2 | 7.3 | 17.7 | 75 | 17.2 | 51.7 | 31 | – |

Reference: US20260117204A1, “STABILIZER FOR URATE OXIDASE AND PEGYLATED CONJUGATE THEREOF, AND PHARMACEUTICAL USE OF STABILIZER” (Hangzhou Grand Biologic Pharmaceutical Inc., priority 2023, published 2026)
